Measurements: article PMC12203944

B1: Aurora A kinase domain (AurA^122-403), cysteine-lite, labelled with dabcyl acceptor (domain or fragment)
chain: ESKKRQWALEDFEIGRPLGKGKFGNVYLAREKQSKFILALKVLFKAQLEKAGVEHQLRREVEIQSHLRHPNILRLYGYFHDATRVYLILEYAPLGTVYRELQKCSKFDEQRTATYITELANALSYCHSKRVIHRDIKPENLLLGSAGELKIADFGWSVHAPSSRRTTLSGTLDYLPPEMIEGRMHDEKVDLWSLGVLCYEFLVGKPPFEANTYQETYKRISRVEFTFPDFVTEGARDLISRLLKHNPSQRPMLREVLEHPWITANSSKPSNSQNKESASKQS
modifications: DABCYL-Plus C2 maleimide on the cysteine introduced by L225C

Experiments:
[1] = biological target: c-Myc^1-331 labelled at the four N-terminal sites in the MB0–MBII region (fluorescence anisotropy); assay: fluorescence polarisation; steady-state fluorescence anisotropy of the A488 dye on c-Myc in the donor-only samples with unlabeled AurA, same plates as for the lifetime measurements; excitation 470 nm, emission 516 nm; fit to a 1:1 binding model
[2] = biological target: c-Myc^1-88 labelled with A488 on C70, phosphorylated on T58 and S62 (UniProt P01106); assay: as above
[3] = biological target: c-Myc^1-331 labelled at the four N-terminal sites in the MB0–MBII region (FRET); assay: FRET or BRET; time-resolved fluorescence lifetime plate reader; Alexa 488-labelled c-Myc constant at 50 nM, DABCYL-labelled AurA titrated 0-12.8 uM; 384-well plates, room temperature, at least 30 min
[4] = biological target: c-Myc^1-331 single-cysteine construct C70, labelled with Alexa 488, phosphorylated on T58 and S62; assay: as above

| Molecule | Kd [1] [nM] | fold enhancement of binding affinity over unphosphorylated c-Myc 1-88 [2] [fold] | Kd [3] [nM] | fold enhancement of binding affinity over unphosphorylated c-Myc 1-331 [4] [fold] |
| --- | --- | --- | --- | --- |
| Aurora A kinase domain (AurA^122-403), unlabeled (from UniProt O14965 122-403) (domain or fragment) | 2000 to 3000 | 3 | – | – |
| B1 | – | – | 2000 to 3000 | 2 |
